Experimental data taken from paper PMC7059380, “In vivo visualization of the i-motif DNA secondary structure in the Bombyx mori testis”.

How the values were obtained:
[1] = biological target: T1, BmILF (Bombyx mori, UniProt A0A1U9WZ16 1-382); test: EMSA; EMSA: 20 ul, 2.5% glycerol, 0.05% NP-40, 5 mM MgCl2, 4 mM EDTA, RT 20 min; probes folded in 50 mM Tris-TAE pH 4.0 (also 6.0, 8.0). MST: NanoTemper buffer with 100 mM Tris pH 6.0, 2.93-6000 nM BmILF, 25 C; conditions: protein: recombinant, label: 5' biotin
T1 sequence: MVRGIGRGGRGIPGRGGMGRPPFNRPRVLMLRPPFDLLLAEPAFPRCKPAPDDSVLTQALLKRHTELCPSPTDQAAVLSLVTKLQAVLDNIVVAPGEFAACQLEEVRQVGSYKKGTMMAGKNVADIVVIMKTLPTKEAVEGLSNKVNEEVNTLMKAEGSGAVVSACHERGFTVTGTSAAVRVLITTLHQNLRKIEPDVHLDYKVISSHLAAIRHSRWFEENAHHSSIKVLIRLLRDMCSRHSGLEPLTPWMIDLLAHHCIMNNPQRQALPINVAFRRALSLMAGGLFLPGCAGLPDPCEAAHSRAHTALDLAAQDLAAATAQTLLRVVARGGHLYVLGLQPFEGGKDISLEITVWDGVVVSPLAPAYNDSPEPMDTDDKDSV

[2] = biological target: T1, BmILF; test: EMSA; Hill fit; EMSA: 20 ul, 2.5% glycerol, 0.05% NP-40, 5 mM MgCl2, 4 mM EDTA, RT 20 min; probes folded in 50 mM Tris-TAE pH 4.0 (also 6.0, 8.0). MST: NanoTemper buffer with 100 mM Tris pH 6.0, 2.93-6000 nM BmILF, 25 C; conditions: protein: recombinant; label: 5' biotin; i-motif (folded by slow cooling at acidic pH)
[3] = biological target: T1, BmILF; test: MST; pH 6.0, 50 nM probe; EMSA: 20 ul, 2.5% glycerol, 0.05% NP-40, 5 mM MgCl2, 4 mM EDTA, RT 20 min; probes folded in 50 mM Tris-TAE pH 4.0 (also 6.0, 8.0). MST: NanoTemper buffer with 100 mM Tris pH 6.0, 2.93-6000 nM BmILF, 25 C; conditions: protein: recombinant; label: Cy5; i-motif (folded at pH 4.0)
[4] = biological target: T1, BmILF; test: EMSA; pH 4.0; EMSA: 20 ul, 2.5% glycerol, 0.05% NP-40, 5 mM MgCl2, 4 mM EDTA, RT 20 min; probes folded in 50 mM Tris-TAE pH 4.0 (also 6.0, 8.0). MST: NanoTemper buffer with 100 mM Tris pH 6.0, 2.93-6000 nM BmILF, 25 C; conditions: protein: recombinant; label: 5' biotin; no i-motif by CD

## CAGTGGCGGCCATCCGTTTAATATTACCGGATGGCCGCGCGAT (structured_DNA) [Hairpin]
[1]; hairpin
  binding result: no binding

## CCCCGCGCCCCCCGCGTCCCCCGCACCCCC (structured_DNA) [BGIBMGA003213-WT i-motif (EMSA)]
[2]
  Kd: 0.078 µM

## CCAGTGCGGGGCGCGAGGGGGCCGAGGGGCGGGGCAACAA (structured_DNA) [BmPOUM2-G4]
[1]; G4
  binding result: no binding

## CCCCGCGCCCCCCGCGTCCCCCGCACCCCC (structured_DNA) [BGIBMGA003213-WT i-motif (MST)]
[3]
  Kd: 0.367 µM

## GGGGGTGCGGGGGACGCGGGGGGCGCGGGG (structured_DNA) [BGIBMGA003213-G4]
[1]; G4
  binding result: no binding

## CATTGCGATATCAGCGTTATCAGTATCAAT (ssDNA) [BGIBMGA003213-Mut]
[4]
  binding result: no binding

## TTGTTGCCCCGCCCCTCGGCCCCCTCGCGCCCCGCACTGG (structured_DNA) [BmPOUM2-WT i-motif (EMSA)]
[2]
  Kd: 0.119 µM

## TTGTTGCCCCGCCCCTCGGCCCCCTCGCGCCCCGCACTGG (structured_DNA) [BmPOUM2-WT i-motif (MST)]
[3]
  Kd: 0.43 µM

## TTGTTGTACTGCTACTCGGATCACTCGAGCATCGTACTGG (ssDNA) [BmPOUM2-Mut]
[4]
  binding result: no binding
